According to the supplement of paper PMC10567573:

B1: P2RY14 (parent)
chain: KLLSVIVWMLMLLLAVPNIILTNQ
B2: ANKRD40 (parent)
chain: YQELLRVCCCELGVNPDQVEKIRK

Variants of: B1
Assay: protein stability index of a GFP-peptide fusion (GPS, HEK-293T) (PSI 1-6); higher = more stable
Settings: c terminus: a fixed tail appended
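Note: lentivirally expressed fusions sorted by FACS into six bins by GFP to DsRed ratio, PSI derived from sequencing read proportions per bin multiplied by bin number.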

Protein stability index: each site, then its substitutions
K1: Y 3.13 | Q 4.07 | P 2.13 | D 1.48
L21: D 2.99 | G 3.21 | F 2.73
N23: Y 2.21 | M 2.42 | A 2.34 | W 2.57 | V 2.99 | R 1.92 | K 2.45
V7: D 3.57 | F 2.12
S4: I 2.44
L14: C 2.41 | N 2.75 | W 2.51 | P 4.16
L12: G 3.74 | N 2.32 | H 2.22 | P 3.18
L13: N 3.02
L10: Y 3.48 | E 4.43 | M 3.84 | D 2.5 | Q 3.16
M11: E 2.06 | A 2.06 | R 2.58
I6: L 4.14 | R 2.43 | A 2.45 | S 2.39
V5: T 3.51 | F 2.09 | L 2.11 | D 3.22 | M 1.71
L2: K 2.76 | G 2.21
W8: C 1.95 | T 3.35 | P 1.85 | Q 1.99 | E 3.97 | I 3.03
T22: V 4.59
V16: F 4.27 | A 2.77 | M 3.43 | C 3.32
A15: W 2.2 | E 2.84 | K 3.74
Q24: E 2.74 | R 3.28
P17: N 2.08 | S 3.12 | T 2.4 | E 3
I20: K 3.1 | D 3.27 | N 2.31 | Y 3.09

Variants of: B2
Assay: as above
Settings: c terminus: a fixed tail appended

Protein stability index of substitutions, site by site:
V19: L 2.2 | Q 2.29 | K 2.68 | W 1.75 | Y 2.26 | M 2.37 | N 1.34 | P 2.19 | G 1.64 | R 1.6 | S 1.66 | F 2.19 | I 2.25 | H 2.27
K24: W 1.27 | V 1.61 | A 1.36 | R 1.6 | I 1.6 | E 1.62 | D 2.13 | P 1.35 | N 1.61 | M 1.66 | H 1.59 | T 2 | F 3.37 | L 2.07 | C 1 | G 2.46 | Q 2.12 | S 1.66
K21: R 2.12 | I 1.81 | L 1.05 | D 1.66 | C 1.82 | V 2.54 | E 2.4 | Y 2.15 | F 2.97 | A 2.02 | H 1.49 | P 1 | G 1.82 | W 2.33 | N 1.85
E20: N 1.99 | A 1.97 | D 2.94 | P 1.66 | V 1.99 | T 1.47 | L 2.4 | I 3.43 | Q 1.75 | M 1.85 | H 1.26 | R 1.96 | K 1.96 | S 1.31 | C 1.56
I22: G 2 | K 2.43 | V 1.41 | R 1.88 | S 2.06 | A 2.02 | Y 2.57 | W 1.54 | H 2.69 | Q 2.99 | N 3.16 | F 2.44 | P 1.18 | M 1.63 | L 1.93 | D 2.25 | E 2.14 | C 2.13
R23: L 1.98 | A 1.91 | D 2.04 | S 1.72 | Q 1.4 | T 2.08 | F 1.55 | E 1.6 | I 1.8 | V 2.9 | P 1.57 | H 1.84 | Y 1.8 | W 1.72 | N 1.93 | K 1.25 | G 1.56 | M 2.02
